Test: soluble on expression in E. coli; label from the status in PepcDB or PDB records

| Sequence | soluble on expression in E. coli |
| --- | --- |
| MGSDKIHHHHHHMSASIPETMKAVVIENGKAVVKQDIPIPELEEGFVLIKTVAVAGNPTDWKHIDFKIGPQGALLGCDAAGQIVKLGPNVDAARFAIGDYIYGVIHGASVRFPSNGAFAEYSAISSETAYKPAREFRLCGKDKLPEGPVKSLEGAVSLPVSLTTAGMILTHSFGLDMTWKPSKAQRDQPILFWGGATAVGQMLIQLAKKLNGFSKIIVVASRKHEKLLKEYGADELFDYHDADVIEQIKKKYNNIPYLVDCVSNTETIQQVYKCAADDLDATVVQLTVLTEKDIKEEDRRQNVSIEGTLLYLIGGNDVPFGTFTLPADPEYKEAAIKFIKFINPKINDGEIHHIPVKVYKNGLDDIPQL | not soluble |
| MGHHHHHHSHMAEAKPDVWKSYNVGTVLFEDKASETKGSDIYHRIIPDAESYIKEQARTVLATLYNSPEDSITPVNKIHYTLEDIEGISAKGGGNGDVTIFYSTRHIEKSFAENDTAKLFFETRGVLLHELTHAYQLEPQGIGSYGTNRVFWAFIEGMADAVRVANGGFDGPNARPKGGNYMDGYRTAGYFFVWLRDNKDPEFLRKFNRSTLEVIPWSFDGAIKHILGTEYSIDELWHEYQVAVGDIQV | soluble |
| MAARPKLHYPNGRGRMESVRWVLAAAGVEFDEEFLETKEQLYKLQDGNHLLFQQVPMVEIDGMKLVQTRSILHYIADKHNLFGKNLKERTLIDMYVEGTLDLLELLIMHPFLKPDDQQKEVVNMAQKAIIRYFPVFEKILRGHGQSFLVGNQLSLADVILLQTILALEEKIPNILSAFPFLQEYTVKLSNIPTIKRFLEPGSKKKPPPDEIYVRTVYNIFRP | soluble |
| MSLADVDTGTLTIKGNIAESPCKFEAGGDSVSINMPTVPTSVFEGKAKYSTYDDAVGVTSSMLKISCPKEVAGVKLSLITNDKITGNDKAIASSNDTVGYYLYLGDNSDVLDVSAPFNIESYKTAEGQYAIPFKAKYLKLTDNSVQSGDVLSSLVMRVAQDEGHHHHHH | soluble |
| KADNSSVEKLVVQVQQLDPVKGNKDVGTVEITESAYGLVFTPHLHGLAQGLHGFHIHQNPSCEPKEKDGKLVAGLGAGGHWDPKETKQHGYPWSDNAHLGDLPALFVEHDGSATNPVLAPRLKKLDEVKGHSLMIHEGGDNHSDHPAPLGGGGPRMACGVIK | soluble |
| LAIFLIDLPPSDMERRLGDALTVYVDAMRYPRGTETLRAPMWLEHIRRRGWQAVAAVEVTAAEQAEAADTTALPSAAELSNAPMLGVAYGYPGAPGQWWQQQVVLGLQRSGFPRLAIARLMTSYFELTELHILPRAQGRGLGEALARRLLAGRDEDNVLLSTPETNGEDNRAWRLYRRLGFTDIIRGYHFAGDPRAFAILGRTLPL | not soluble |
| AIACGDCVEKEYPNRGNTCLENGSFLLNFTGCAVCSKRDFMLITNKSLKEEDGEEIVTYDHLCKNCHHVIARHEYTFSIMDEFQEYTMLCLLCGKAEDTISILPDDPRQMTLLF | soluble |
| MGSDKIHHHHHHMAVVCRRITASSRTYSLSALTRCLQEEAAAIAVAAERLSSSQVEKALVLLERCSDQRAKLVITGVGKSGIVARKIAATFSSIGLMALYLNPLDAMHGDLGVVAQEDVCLLLSNSGETAELLEVLPHLKRRGTARIALVGKPDSSLARGSDVVLEASVDREVCPLNLAPTASTAVAMAIGDALAAIWMERRNISPADFAFNHPAGSLGKQLTLTASDLMVPVEKVQPLQPNTSLQEVICKLTQDGIGSGWVEDPSTAGLLLGLITDGDLRRALRDHSAENWASLSAAELMTADPITVDADLLAVEAIKQMECNRRKPISVLPVVGPDSSGNLLLGLLRLHDLIQAGLT | not soluble |
| MKKILALLVIAPLLVSCSGNKNQVENEVFVKDTNGFEILMGQFAHNIENIWGLKEVLIAGPKDYVKYTDQYQTRSHINFDAGTITIETIATTNPAAHLRQAIITTLLMGDDPGSIDLYSDVNDIQISKEPFLYGQVLDNNGEPIRWEWRAAHFADYLLQNKMQTRTSGLHVISFVTIQLVPNHLDKRAHKYLPLVRKSAARYGVEESLILAIMQTESSFNPYAVSRSDALGLMQVVQHTAGKDVFKLKGKSGQPSRSYLFDPENNIDAGTAYLSILQNTYLGGIQNATSRRYAVITSYNGGAGSVLRVFHSDKNKAVGIINTMSPGDVFQTLTTKHPSGESRRYLVKVNSAQKNYRRY | not soluble |
| MERRKDTEVALAQRDTILQTILDASPDSIGIFNENMVYQACNKPFVNALGISEVSDLIGKRLQDVIPVEMYTRLETSDLHALRQAEPVRYIDKVVSSDGHITWFDVVKSPFKDKASGTNGVLIMARDIS | not soluble |

Source: the DeepSol protein solubility set
